Test results published in patent publication CN115057931A.

Target: human LAG-3, full length, on transfected cells (human) (UniProt P18627)
Test: cell-based or functional assay

UniProt P18627, sequence (P18627 23-525 limits assumed): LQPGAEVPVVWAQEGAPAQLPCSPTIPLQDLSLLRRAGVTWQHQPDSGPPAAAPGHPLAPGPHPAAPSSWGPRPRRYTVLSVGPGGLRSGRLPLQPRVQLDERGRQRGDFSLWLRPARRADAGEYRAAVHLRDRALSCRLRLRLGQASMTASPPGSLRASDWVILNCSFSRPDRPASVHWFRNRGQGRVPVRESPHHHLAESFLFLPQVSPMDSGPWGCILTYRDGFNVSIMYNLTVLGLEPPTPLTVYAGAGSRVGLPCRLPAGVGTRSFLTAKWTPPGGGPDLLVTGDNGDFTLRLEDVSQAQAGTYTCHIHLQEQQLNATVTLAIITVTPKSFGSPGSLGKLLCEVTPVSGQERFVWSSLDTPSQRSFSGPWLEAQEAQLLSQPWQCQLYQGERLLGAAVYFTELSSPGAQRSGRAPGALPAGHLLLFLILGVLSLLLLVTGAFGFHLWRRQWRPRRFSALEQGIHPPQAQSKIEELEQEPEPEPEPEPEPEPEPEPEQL

B1: BMK7 (antibody, from another filing, V domains shown)
VH: QVQLVESGGGVVQPGRSLRLSCVASGFTFSSYGMHWVRQAPGKGLEWVAIIWYDGSNKYYADSVKGRFTISRDNSKNTQYLQMNSLRAEDTAVYYCASVATSGDFDYYGMDVWGQGTTVTVSS
VL: EIVLTQSPATLSLSPGERTTLSCRASQRISTYLAWYQQKPGQAPRLLIYDASKRATGIPARFSGSGSGTGFTLTISSLEPEDFAVYYCQQRSNWPLTFGGGTKVEIK
With B1 the EC50(nM), IL-2 luciferase reporter in Jurkat cells expressing human LAG-3 with Raji cells and SEE was 2.65 nM.
